# According to patent US20250346646A1, “COMPOUNDS USEFUL TO TREAT METABOLIC DISORDERS” (President and Fellows of Harvard College, priority 2016, published 2025):
# What was measured:
# [1] = test system: HFD-induced obese aP2−/− mice; test: CA33 treatment of HFD-induced obese aP2−/− mice; assay type: in vivo, mouse
# Protocol: FIG. 11A is a bar graph showing fasting blood glucose (mg/dL) in HFD-induced obese aP2−/− mice before (open bars) and after CA33 antibody or vehicle treatment for three weeks (solid bars).
# The test was performed after 2 weeks of vehicle (triangles) or CA33 antibody treatment (squares) in aP2−/− mice.
# Animal care and experimental procedures were performed with approval from animal care committees of Harvard University. Male mice (leptin-deficient (ob/ob) and diet induced obese (DIO) mice with C57BL/6J background) were purchased from The Jackson Laboratory (Bar Harbor, ME) and kept on a 12-hour light/dark cycle. DIO mice with C57BL/6J background were maintained on high-fat diet (60% kcal fat, Research Diets, Inc., D12492i) for 12 to 15 weeks before starting treatment except in clamp studies, for which they were on HFD for 20 weeks. Leptin-deficient (ob/ob) mice were maintained on regular chow diet (RD, PicoLab 5058 Lab Diet). Animals used were 18 to 31 weeks of age for dietary models and 9 to 12 weeks of age for the ob/ob model. In all experiments, at least 7 mice in each group were used, unless otherwise stated in the text. The mice were treated with 150 μl PBS (vehicle) or 1.5 mg/mouse (˜33 mg/kg) anti-aP2 monoclonal antibody in 150 μl PBS by twice weekly subcutaneous injections for 3 to 5 weeks. Before and after the treatment, blood samples were collected from the tail after 6 hours of daytime food withdrawal. Body weights were measured weekly in the fed state. Blood glucose levels were measured weekly after 6 hours of food withdrawal or after 16 hours overnight fast. After 2 weeks of treatment, glucose tolerance tests were performed by intraperitoneal glucose injections (0.75 g/kg for DIO, 0.5 g/kg for ob/ob mice). After 3 weeks of treatment, insulin tolerance tests were performed in DIO mice by intraperitoneal insulin injections (0.75 IU/kg). After 5 weeks of treatment, hyperinsulinemic-euglycemic clamp experiments were performed in DIO mice as previously described (Furuhashi et al., (2007) Nature 447, 959-965; Maeda et al., (2005) Cell metabolism 1, 107-119). […]
# [2] = target: human glucagon receptor (Homo sapiens, UniProt P47871); test: cAMP-response element luciferase reporter in CHO-K1 cells expressing human GCGR-GFP; assay type: cell-based; settings: 1 ug/ml aP2, 25 nM glucagon, 20 μg/ml antibody; 4 hours post stimulation
# Chain of human glucagon receptor (P47871 26-477): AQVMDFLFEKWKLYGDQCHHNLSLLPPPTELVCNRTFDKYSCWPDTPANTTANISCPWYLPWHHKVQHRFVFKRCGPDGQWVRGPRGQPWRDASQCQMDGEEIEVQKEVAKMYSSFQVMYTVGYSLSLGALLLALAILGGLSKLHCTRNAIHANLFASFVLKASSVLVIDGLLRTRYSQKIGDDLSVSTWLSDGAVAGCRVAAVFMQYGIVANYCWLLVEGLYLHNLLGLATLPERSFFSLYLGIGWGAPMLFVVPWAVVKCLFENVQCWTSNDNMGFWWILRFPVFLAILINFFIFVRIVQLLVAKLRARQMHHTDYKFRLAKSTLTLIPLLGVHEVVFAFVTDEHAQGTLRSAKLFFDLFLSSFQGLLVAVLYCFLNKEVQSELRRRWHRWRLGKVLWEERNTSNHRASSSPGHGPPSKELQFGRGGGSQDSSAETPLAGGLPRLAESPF
# Protocol: Bar graphs represent mean±standard deviation (s.d.), n=4-5 per group. *P<0.05, **P<0.01, ***P≤0.001, ****P≤0.0001, ns P>0.05. Multiple group comparisons were done using one-way ANOVA statistics with Tukey post-test correction. Graphs show data as mean±standard error of mean (s.e.m.), analyzed using two-way ANOVA.
# During cloning hexahistadine and WELQ protease site was added for protein purification. Murine aP2 gene was cloned into pet21+ vector after the hexahistadine tag and TEV protease site for ease of purification.
# Plasmids were transfected using Lipofectamine (Invitrogen) according to manufacturer's instructions. Transiently transfected cells were grown in appropriate selection antibiotics where applicable for stable cell line generation. Following three passages under selection media, single cell colonies were picked and expanded for experimentation after validation.
# [3] = test system: ob/ob mice; test: CA33 treatment of leptin-deficient ob/ob mice; assay type: in vivo, mouse
# Protocol: FIG. 11C is a bar graph showing fasting blood glucose levels (mg/dl) in ob/ob mice before (open bars) and after (solid bars) 3 weeks of CA33 antibody or vehicle treatment (n=10 mice per group). **p<0.01.
# The test was performed after 2 weeks of vehicle (triangles) or CA33 antibody treatment (squares) in aP2−/− mice. *p<0.05.
# (§1) The test was performed after 3 weeks of vehicle (triangles) or CA33 antibody treatment (squares) in aP2−/− mice.
# as §1
# Animal care and experimental procedures were performed with approval from animal care committees of Harvard University. Male mice (leptin-deficient (ob/ob) and diet induced obese (DIO) mice with C57BL/6J background) were purchased from The Jackson Laboratory (Bar Harbor, ME) and kept on a 12-hour light/dark cycle. DIO mice with C57BL/6J background were maintained on high-fat diet (60% kcal fat, Research Diets, Inc., D12492i) for 12 to 15 weeks before starting treatment except in clamp studies, for which they were on HFD for 20 weeks. Leptin-deficient (ob/ob) mice were maintained on regular chow diet (RD, PicoLab 5058 Lab Diet). Animals used were 18 to 31 weeks of age for dietary models and 9 to 12 weeks of age for the ob/ob model. In all experiments, at least 7 mice in each group were used, unless otherwise stated in the text. The mice were treated with 150 μl PBS (vehicle) or 1.5 mg/mouse (˜33 mg/kg) anti-aP2 monoclonal antibody in 150 μl PBS by twice weekly subcutaneous injections for 3 to 5 weeks. Before and after the treatment, blood samples were collected from the tail after 6 hours of daytime food withdrawal. Body weights were measured weekly in the fed state. Blood glucose levels were measured weekly after 6 hours of food withdrawal or after 16 hours overnight fast. After 2 weeks of treatment, glucose tolerance tests were performed by intraperitoneal glucose injections (0.75 g/kg for DIO, 0.5 g/kg for ob/ob mice). After 3 weeks of treatment, insulin tolerance tests were performed in DIO mice by intraperitoneal insulin injections (0.75 IU/kg). After 5 weeks of treatment, hyperinsulinemic-euglycemic clamp experiments were performed in DIO mice as previously described (Furuhashi et al., (2007) Nature 447, 959-965; Maeda et al., (2005) Cell metabolism 1, 107-119).
# Finally, the effect of CA33 in a second model of severe genetic obesity and insulin resistance using leptin-deficient ob/ob mice was examined. Strikingly, hyperglycemia in the ob/ob mice was normalized in CA33-treated mice compared to controls (FIG. 11C).
molecule,measurement,setting,value
"CA33: low-affinity anti-aP2 monoclonal antibody, rabbit-mouse hybrid, produced and purified by UCB; VL Seq. ID 28, VH Seq. ID 41 (antibody, V domains shown, Rabbit Ab 909 VH region; Rabbit Ab 909 VL-region) VH: QSVEESGGRLVTPGTPLTLTCTVSGFSLSTYYMSWVRQAPGKGLEWIGIIYPSGSTYCASWAKGRFTISKASTTVDLKITSPTTEDTATYFCARPDNDGTSGYLSGFGLWGQGTLVTVSS VL: DVVMTQTPASVSEPVGGTVTIKCQASEDISRYLVWYQQKPGQPPKRLIYKASTLASGVPSRFKGSGSGTDFTLTISDLECDDAATYYCQCTYGTYAGSFFYSFGGGTEVVVE",Weight,[1]; aP2−/− mice fed a HFD,failed to induce any change
same,Fasting glucose,"[1]; aP2−/− mice fed a HFD, three weeks treatment",failed to induce any change
same,Glucose tolerance (GTT),"[1]; obese aP2−/− mice, after 2 weeks of treatment",did not affect glucose tolerance
same,"Effect on glucagon potentiation by aP2 (cAMP response, luminescence)",[2],blocks the glucagon potentiation effect of aP2
same,Insulin levels,[3]; ob/ob mice,lower insulin levels
same,Glucagon response,[3]; ob/ob mice after 3 weeks of treatment,blunts the glucagon response
same,Hyperglycemia (fasting blood glucose),"[3]; ob/ob mice, 3 weeks of treatment, vs controls",normalized
same,Glucose tolerance (GTT),"[3]; ob/ob mice, after 2 weeks, vs vehicle",significantly improved glucose tolerance
